According to article PMC8618851, “The RNA Directed DNA Methylation (RdDM) Pathway Regulates Anthocyanin Biosynthesis in Crabapple (Malus cv. spp.) Leaves by Methylating the McCOP1 Promoter”:

Target: McDRM2 (Malus cv. spp. (crabapple), UniProt UPI0010AA5BBA 1-600)
Test: EMSA; 10x binding buffer, MgCl2, NP-40; 2 uL 10x binding buffer, 1 uL 50% glycerol, 1 uL 100 mM MgCl2, 1 uL 1% NP-40, 2 ug protein, 2 uL 0.1 uM biotin oligo; 25 C, 20 min; 12% native PAGE; pH and salt not given
Settings: protein: recombinant; tags: MBP (pMAL-C2X); label: 3' biotin

McDRM2, sequence (chain, as listed by the source): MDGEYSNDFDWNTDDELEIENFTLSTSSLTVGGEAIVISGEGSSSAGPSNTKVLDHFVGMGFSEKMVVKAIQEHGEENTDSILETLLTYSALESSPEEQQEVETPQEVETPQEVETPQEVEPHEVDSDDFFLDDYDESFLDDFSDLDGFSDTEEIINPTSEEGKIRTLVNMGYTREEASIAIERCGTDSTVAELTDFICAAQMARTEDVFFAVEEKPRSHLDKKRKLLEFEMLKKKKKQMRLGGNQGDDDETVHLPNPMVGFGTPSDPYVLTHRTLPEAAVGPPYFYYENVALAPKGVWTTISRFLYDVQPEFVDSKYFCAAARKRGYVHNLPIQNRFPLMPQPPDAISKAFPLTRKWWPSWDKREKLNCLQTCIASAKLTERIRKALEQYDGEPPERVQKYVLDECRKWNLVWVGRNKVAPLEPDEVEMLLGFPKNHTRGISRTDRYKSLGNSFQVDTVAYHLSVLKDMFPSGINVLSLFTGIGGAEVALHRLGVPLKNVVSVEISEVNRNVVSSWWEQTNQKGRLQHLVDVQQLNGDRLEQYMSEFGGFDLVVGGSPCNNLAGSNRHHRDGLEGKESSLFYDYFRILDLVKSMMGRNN

B1: McCOP1 promoter SINE-site probe (dsDNA)
DNA 1: TTCAACGTATTAACTTTATCGGTTCGGTGGACAATTCC
DNA 2: GGAATTGTCCACCGAACCGATAAAGTTAATACGTTGAA
binding result: no binding
